# Patent publication US20120264815
# pKd: −log10 of the molar value.
# Molecular target: von Willebrand factor (VWF) (Homo sapiens) (UniProt P04275)
# Assay: filter
# Conditions: 2'-F pyrimidines; pool after 4 rounds convergent SELEX
sequence,measurement,value
GGGAGGACGAUGCGGNNNNNNNNNNNNNNNNNNNNNNNNNNNNNNNNNNNNNNNNCAGACGACUCGCUGAGGAUCC [VWF convergent SELEX round 4 pool (R9)],pKd,8.35
